This data set deals with the molecule itself. The experiment in a line: dual-colour single-molecule co-tracking.

B1: mXFP-EpoR coexpressed with JAK2 V617F-mEGFP (complex)
chain 1: APPPNLPDPKFESKAALLAARGPEELLCFTERLEDLVCFWEEAASAGVGPGNYSFSYQLEDEPWKLCRLHQAPTARGAVRFWCSLPTADTSSFVPLELRVTAASGAPRYHRVIHINEVVLLDAPVGLVARLADESGHVVLRWLPPPETPMTSHIRYEVDVSAGNGAGSVQRVEILEGRTECVLSNLRGRTRYTFAVRARMAEPSFGGFWSAWSEPVSLLTPSDLDPLILTLSLILVVILVLLTVLALLSHRRALKQKIWPGIPSPESEFEGLFTTHKGNFQLWLYQNDGCLWWSPCTPFTEDPPASLEVLSERCWGTMQAVEPGTDDEGPLLEPVGSEHAQDTYLVLDKWLLPRNPPSEDLPGPGGSVDIVAMDEGSEASSCSSALASKPSPEGASAASFEYTILDPSSQLLRPWTLCPELPPTPPHLKYLYLVVSDSGISTDYSSGDSQGAQGGLSDGPYSNPYENSLIPAAEPLPPSYVACS
chain 2: MGMACLTMTEMEGTSTSSIYQNGDISGNANSMKQIDPVLQVYLYHSLGKSEADYLTFPSGEYVAEEICIAASKACGITPVYHNMFALMSETERIWYPPNHVFHIDESTRHNVLYRIRFYFPRWYCSGSNRAYRHGISRGAEAPLLDDFVMSYLFAQWRHDFVHGWIKVPVTHETQEECLGMAVLDMMRIAKENDQTPLAIYNSISYKTFLPKCIRAKIQDYHILTRKRIRYRFRRFIQQFSQCKATARNLKLKYLINLETLQSAFYTEKFEVKEPGSGPSGEEIFATIIITGNGGIQWSRGKHKESETLTEQDLQLYCDFPNIIDVSIKQANQEGSNESRVVTIHKQDGKNLEIELSSLREALSFVSLIDGYYRLTADAHHYLCKEVAPPAVLENIQSNCHGPISMDFAISKLKKAGNQTGLYVLRCSPKDFNKYFLTFAVERENVIEYKHCLITKNENEEYNLSGTKKNFSSLKDLLNCYQMETVRSDNIIFQFTKCCPPKPKDKSNLLVFRTNGVSDVPTSPTLQRPTHMNQMVFHKIRNEDLIFNESLGQGTFTKIFKGVRREVGDYGQLHETEVLLKVLDKAHRNYSESFFEAASMMSKLSHKHLVLNYGVCFCGDENILVQEFVKFGSLDTYLKKNKNCINILWKLEVAKQLAWAMHFLEENTLIHGNVCAKNILLIREEDRKTGNPPFIKLSDPGISITVLPKDILQERIPWVPPECIENPKNLNLATDKWSFGTTLWEICSGGDKPLSALDSQRKLQFYEDRHQLPAPKWAELANLINNCMDYEPDFRPSFRAIIRDLNSLFTPDYELLTENDMLPNMRIGALGFSGAFEDRDPTQFEERHLKFLQQLGKGNFGSVEMCRYDPLQDNTGEVVAVKKLQHSTEEHLRDFEREIEILKSLQHDNIVKYKGVCYSAGRRNLKLIMEYLPYGSLRDYLQKHKERIDHIKLLQYTSQICKGMEYLGTKRYIHRDLATRNILVENENRVKIGDFGLTKVLPQDKEYYKVKEPGESPIFWYAPESLTESKFSVASDVWSFGVVLYELFTYIEKSKSPPAEFMRMIGNDKQGQMIVFHLIELLKNNGRLPRPDGCPDEIYMIMTECWNNNVNQRPSFRDLALRVDQIRDNMAG
In the case of B1, the “ligand-independent dimerization relative to ligand-induced dimerization” value was roughly 25%.

B2: mXFP-GHR coexpressed with JAK2 V617F-mEGFP (complex)
chain 1: FSGSEATAAILSRAPWSLQSVNPGLKTNSSKEPKFTKCRSPERETFSCHWTDEVHHGTKNLGPIQLFYTRRNTQEWTQEWKECPDYVSAGENSCYFNSSFTSIWIPYCIKLTSNGGTVDEKCFSVDEIVQPDPPIALNWTLLNVSLTGIHADIQVRWEAPRNADIQKGWMVLEYELQYKEVNETKWKMMDPILTTSVPVYSLKVDKEYEVRVRSKQRNSGNYGEFSEVLYVTLPQMSQFTCEEDFYFPWLLIIIFGIFGLTVMLFVFLFSKQQRIKMLILPPVPVPKIKGIDPDLLKEGKLEEVNTILAIHDSYKPEFHSDDSWVEFIELDIDEPDEKTEESDTDRLLSSDHEKSHSNLGVKDGDSGRTSCCEPDILETDFNANDIHEGTSEVAQPQRLKGEADLLCLDQKNQNNSPYHDACPATQQPSVIQAEKNKPQPLPTEGAESTHQAAHIQLSNPSSLSNIDFYAQVSDITPAGSVVLSPGQKNKAGMSQCDMHPEMVSLCQENFLMDNAYFCEADAKKCIPVAPHIKVESHIQPSLNQEDIYITTESLTTAAGRPGTGEHVPGSEMPVPDYTSIHIVQSPQGLILNATALPLPDKEFLSSCGYVSTDQLNKIMP
chain 2: MGMACLTMTEMEGTSTSSIYQNGDISGNANSMKQIDPVLQVYLYHSLGKSEADYLTFPSGEYVAEEICIAASKACGITPVYHNMFALMSETERIWYPPNHVFHIDESTRHNVLYRIRFYFPRWYCSGSNRAYRHGISRGAEAPLLDDFVMSYLFAQWRHDFVHGWIKVPVTHETQEECLGMAVLDMMRIAKENDQTPLAIYNSISYKTFLPKCIRAKIQDYHILTRKRIRYRFRRFIQQFSQCKATARNLKLKYLINLETLQSAFYTEKFEVKEPGSGPSGEEIFATIIITGNGGIQWSRGKHKESETLTEQDLQLYCDFPNIIDVSIKQANQEGSNESRVVTIHKQDGKNLEIELSSLREALSFVSLIDGYYRLTADAHHYLCKEVAPPAVLENIQSNCHGPISMDFAISKLKKAGNQTGLYVLRCSPKDFNKYFLTFAVERENVIEYKHCLITKNENEEYNLSGTKKNFSSLKDLLNCYQMETVRSDNIIFQFTKCCPPKPKDKSNLLVFRTNGVSDVPTSPTLQRPTHMNQMVFHKIRNEDLIFNESLGQGTFTKIFKGVRREVGDYGQLHETEVLLKVLDKAHRNYSESFFEAASMMSKLSHKHLVLNYGVCFCGDENILVQEFVKFGSLDTYLKKNKNCINILWKLEVAKQLAWAMHFLEENTLIHGNVCAKNILLIREEDRKTGNPPFIKLSDPGISITVLPKDILQERIPWVPPECIENPKNLNLATDKWSFGTTLWEICSGGDKPLSALDSQRKLQFYEDRHQLPAPKWAELANLINNCMDYEPDFRPSFRAIIRDLNSLFTPDYELLTENDMLPNMRIGALGFSGAFEDRDPTQFEERHLKFLQQLGKGNFGSVEMCRYDPLQDNTGEVVAVKKLQHSTEEHLRDFEREIEILKSLQHDNIVKYKGVCYSAGRRNLKLIMEYLPYGSLRDYLQKHKERIDHIKLLQYTSQICKGMEYLGTKRYIHRDLATRNILVENENRVKIGDFGLTKVLPQDKEYYKVKEPGESPIFWYAPESLTESKFSVASDVWSFGVVLYELFTYIEKSKSPPAEFMRMIGNDKQGQMIVFHLIELLKNNGRLPRPDGCPDEIYMIMTECWNNNVNQRPSFRDLALRVDQIRDNMAG
For the protein B2, the “ligand-independent dimerization relative to ligand-induced dimerization” value is roughly 10%.

Values taken from publication PMC8117407 (Science (New York, N.Y.), 2020).
